Residue numbers refer to the chain shown, from its start.

First the molecules themselves.
B1: Mab#309 (antibody, V domains shown)
VH: EVKLEESGGGLVQPGGSMKLSCVASGFTFSNYWMNWVRQSPEKGLEWVAEIRLKSNKGATHYAESVKGRFTISRDDSKSSVYLQMNNLRAEDTGIYYCASLLYDGYLHWGQGTLVTVSA
VL: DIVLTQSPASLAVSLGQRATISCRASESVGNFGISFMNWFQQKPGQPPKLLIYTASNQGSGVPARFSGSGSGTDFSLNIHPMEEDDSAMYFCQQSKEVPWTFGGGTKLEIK
notes: Mouse IgG monoclonal from a hybridoma; V regions were amplified with primers specific for mouse IgG gamma1 VH and Vk; also called antibody 309
B2: Mab#471 (antibody, V domains shown)
VH: B1 VH with L4F, T28S, K54T, G58Q, T60I, H61Y, L102F
VL: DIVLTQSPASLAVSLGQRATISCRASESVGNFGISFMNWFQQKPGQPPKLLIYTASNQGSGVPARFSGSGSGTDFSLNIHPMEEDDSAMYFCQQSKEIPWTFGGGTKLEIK
notes: Mouse IgG monoclonal from a hybridoma; V regions were amplified with primers specific for mouse IgG gamma1 VH and Vk
B3: Mab#476 (antibody, V domains shown)
VH: EVKLEESGGGLVQPGGSMKLSCAASGFTFSDAWMDWVRQSPEKGLEWVAEIRSKANNHATYYAESVKGRFTISRDDSKSSVYLQMNSLRAEDTGIYYCTTPTLYGAMDYWGQGTSVTVSA
VL: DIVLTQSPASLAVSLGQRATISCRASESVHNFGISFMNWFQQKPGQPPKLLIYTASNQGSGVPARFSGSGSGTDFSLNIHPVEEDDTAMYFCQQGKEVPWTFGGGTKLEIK
notes: Mouse IgG monoclonal from a hybridoma; V regions were amplified with primers specific for mouse IgG gamma1 VH and Vk; also called antibody 476
B4: Mab#195 (antibody, V domains shown)
VH: EVKLEESGGGLVQPGGSMKLSCVASGFTFSNYWMNWVRQSPEKGLEWVAEIRLKSNNYATHYAESVKGRFTISRDDSKSSVYLQMNNLRAEDTGIYYCTREDYYGYPDYWGQGTTLTVSS
VL: not shown
notes: Mouse IgG monoclonal from a hybridoma; V regions were amplified with primers specific for mouse IgG gamma1 VH and Vk; also called antibody 195

The first assay has as its target T1, human IL-6 (human, UniProt P05231 30-212).
T1 construct: The Biacore text says only 'IL-6 protein'; also called interleukin-6; IL-6 protein
Put plainly: plate binding assay read as OD450, antibody titrated on IL6 (form of the coated IL-6 not given for this figure).
Usually EC50 (read off the curve) stands for the concentration needed to bring the measured effect to its halfway point. Regarding B1, the “EC50 (read off the curve)” value was roughly 3 ng/mL.
Take B2: the “EC50 (read off the curve)” value is roughly 5 ng/mL.
B3: the “EC50 (read off the curve)” value is roughly 5 ng/mL.
As to B4, the “EC50 (read off the curve)” value is roughly 4 ng/mL.

In the next assay the target is T1, human IL-6. Briefly: Biacore, antibody immobilized on chip, IL-6 passed over. The procedure: The antibodies were immobilized on a chip; IL-6 protein was passed over the chip, and on-rates and off-rates were measured.
On the technique in general: In SPR one partner is held on a chip, and binding of the other changes the refractive index at the surface.
In general, Kd refers to the equilibrium constant for the complex coming apart. A lower Kd goes with a tighter complex. As usually defined, the koff is the first-order rate constant of dissociation. The term kon denotes a measure of how fast the partners come together. Low readings indicate slow association, high ones fast association. In turn, B1 came in with a Kd of 0.135 nM, a koff of 0.00011 s⁻¹ and a kon of 800000 M⁻¹ s⁻¹.
In turn, B2 showed a Kd of 0.0075 nM, an off-rate constant (koff) of 1.4e-05 s⁻¹ and an on-rate (kon) of 1.8e+06 M⁻¹ s⁻¹.
On to B3, for which the Kd was in the range of 0.047 to 0.106 nM, the koff was 0.00012 to 0.00026 s⁻¹ and the kon fell in the range of 2.5e+06 to 2.6e+06 M⁻¹ s⁻¹.
Turning to B4, the Kd was 2 nM, the koff came out at 0.0048 s⁻¹ and the kon was found to be 2.4e+06 M⁻¹ s⁻¹.

The target in another assay is T2, Fc-IL6Ralpha-IL6 (human IL-6Ralpha and IL-6; mouse Fc).
T2 construct: Fusion of a mouse IgG gamma2a Fc, the extracellular domains of human IL-6Ralpha and human IL-6; also called Fc-IL6Ralpha-IL6 fusion protein; muFc-IL6Ralpha-IL6
Put plainly: competition assay: antibody titrated, inhibition of the binding of Fc-IL6Ralpha-IL6 to gp130-Fc; half of the antibody's own maximal inhibition. The procedure:
To further characterize the antibodies that recognize IL-6, the following competition tests were performed. First, the ability of the monoclonal antibodies to inhibit the interaction between Fc-IL6Ralpha-IL6 and gp130-Fc was tested. The inhibition assays were performed based on the methods described by Scheller et al. J. Immuno. Methods, 291:93-100 (2004), the teachings of which are hereby incorporated by reference. […] Second, inhibition of the interaction between Fc-IL6 and Fc-IL6Ralpha by the antibodies was tested.
Regarding B1, the “IC50 (read off the curve)” value was roughly 200 ng/mL.
On the same count and under the same terms, as for B2, the figure is roughly 200 ng/mL; as for B3, roughly 200 ng/mL; as for B4, roughly 100 ng/mL.

The target of the next assay is T2, Fc-IL6Ralpha-IL6. Put plainly: plate binding assay read as OD450, antibody titrated on Fc-IL6Ralpha-IL6.
As for B1, the “EC50 (read off the curve)” value was roughly 3 ng/mL.
B2: the “EC50 (read off the curve)” value was roughly 3 ng/mL.
As for B3, the “EC50 (read off the curve)” value is roughly 6 ng/mL.
The same measure, in the same setting: as for B4, the figure is roughly 4 ng/mL.

The target of the next assay is T3, Fc-IL6 (human IL-6; mouse Fc).
T3 construct: also called Mature Fc-IL6
T3 chain: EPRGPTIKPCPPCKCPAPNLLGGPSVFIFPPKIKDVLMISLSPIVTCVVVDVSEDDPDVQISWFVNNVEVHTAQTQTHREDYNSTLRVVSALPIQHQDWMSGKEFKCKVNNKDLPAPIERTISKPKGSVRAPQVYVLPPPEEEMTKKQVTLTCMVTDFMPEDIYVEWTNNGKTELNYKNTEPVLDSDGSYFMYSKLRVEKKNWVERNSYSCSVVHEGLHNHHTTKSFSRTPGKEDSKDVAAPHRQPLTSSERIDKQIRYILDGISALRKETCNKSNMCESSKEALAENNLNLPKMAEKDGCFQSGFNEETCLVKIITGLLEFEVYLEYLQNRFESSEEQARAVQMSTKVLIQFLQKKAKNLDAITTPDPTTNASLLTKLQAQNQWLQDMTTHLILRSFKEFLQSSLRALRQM
Put plainly: binding to immobilized Fc-IL6 (screen of paragraph 73).
B1: the binding result is recorded as “binds”.
As to B2, the binding result was “binds”.
In the case of B3, the binding result is “binds”.
For B4, the binding result is recorded as “binds”.

The target of a further assay is T4, human IL-6Ralpha (human, UniProt P08887 20-358, limits assumed).
T4 construct: also called IL-6Ralpha alone
T4 sequence (looked up): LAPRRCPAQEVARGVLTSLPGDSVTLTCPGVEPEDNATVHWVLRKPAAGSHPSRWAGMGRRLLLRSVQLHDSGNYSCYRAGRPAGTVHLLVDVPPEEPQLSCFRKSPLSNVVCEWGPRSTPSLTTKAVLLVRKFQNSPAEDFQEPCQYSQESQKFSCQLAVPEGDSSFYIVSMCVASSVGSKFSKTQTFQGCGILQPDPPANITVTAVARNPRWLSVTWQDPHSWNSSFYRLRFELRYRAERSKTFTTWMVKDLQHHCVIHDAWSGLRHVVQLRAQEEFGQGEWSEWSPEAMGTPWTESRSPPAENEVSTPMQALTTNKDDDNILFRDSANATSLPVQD
Put plainly: plate binding assay read as OD450, antibody titrated on IL6Ralpha alone.
Consider B1, for which the binding result is recorded as “no binding (tested: 1 ug/ml)”.
On to B2, for which the binding result is “no binding (tested: 1 ug/ml)”.
Still for that read-out and setting: as for B3, the entry is “no binding (tested: 1 ug/ml)”.
On the same count and under the same terms, as for B4, the entry is “no binding (tested: 1 ug/ml)”.

Another assay concerns the target T2, Fc-IL6Ralpha-IL6. Briefly: cell-based or functional assay.
In the case of B2, the “haptoglobin level in mice given muFc-IL6Ralpha-IL6, relative to the positive control group at 24 hours” value is roughly 30%.

For the origin of these results see US20070178098A1 (Merck KGaA, published 2007).
